Patent US20080058636A1 (EPIX PHARMACEUTICALS, published 2008)
Bridge positions count the residues as written; N and C are the ends. Ends that are not written are not given here.

Legend:
[1] = target: T1, rat collagen (acid soluble, type I, rat tail, Upstate 08-115) (rat, UniProt P02454 152-1207; P02466 86-1125); assay: dried collagen assay
T1 construct: gelled and dried as a fibril film in the dried collagen assay; also called dried rat collagen; insoluble rat collagen

[2] = target: T2, human collagen type I (acid soluble, extracted from placenta, Sigma C7774) (human, UniProt P02452 162-1218; P08123 80-1119); assay: dried collagen assay
T2 construct: gelled and dried as a fibril film in the dried collagen assay; also called dried human collagen; h-Collagen
T2 sequence (P02452 162-1218 limits assumed, chain 1 of 2): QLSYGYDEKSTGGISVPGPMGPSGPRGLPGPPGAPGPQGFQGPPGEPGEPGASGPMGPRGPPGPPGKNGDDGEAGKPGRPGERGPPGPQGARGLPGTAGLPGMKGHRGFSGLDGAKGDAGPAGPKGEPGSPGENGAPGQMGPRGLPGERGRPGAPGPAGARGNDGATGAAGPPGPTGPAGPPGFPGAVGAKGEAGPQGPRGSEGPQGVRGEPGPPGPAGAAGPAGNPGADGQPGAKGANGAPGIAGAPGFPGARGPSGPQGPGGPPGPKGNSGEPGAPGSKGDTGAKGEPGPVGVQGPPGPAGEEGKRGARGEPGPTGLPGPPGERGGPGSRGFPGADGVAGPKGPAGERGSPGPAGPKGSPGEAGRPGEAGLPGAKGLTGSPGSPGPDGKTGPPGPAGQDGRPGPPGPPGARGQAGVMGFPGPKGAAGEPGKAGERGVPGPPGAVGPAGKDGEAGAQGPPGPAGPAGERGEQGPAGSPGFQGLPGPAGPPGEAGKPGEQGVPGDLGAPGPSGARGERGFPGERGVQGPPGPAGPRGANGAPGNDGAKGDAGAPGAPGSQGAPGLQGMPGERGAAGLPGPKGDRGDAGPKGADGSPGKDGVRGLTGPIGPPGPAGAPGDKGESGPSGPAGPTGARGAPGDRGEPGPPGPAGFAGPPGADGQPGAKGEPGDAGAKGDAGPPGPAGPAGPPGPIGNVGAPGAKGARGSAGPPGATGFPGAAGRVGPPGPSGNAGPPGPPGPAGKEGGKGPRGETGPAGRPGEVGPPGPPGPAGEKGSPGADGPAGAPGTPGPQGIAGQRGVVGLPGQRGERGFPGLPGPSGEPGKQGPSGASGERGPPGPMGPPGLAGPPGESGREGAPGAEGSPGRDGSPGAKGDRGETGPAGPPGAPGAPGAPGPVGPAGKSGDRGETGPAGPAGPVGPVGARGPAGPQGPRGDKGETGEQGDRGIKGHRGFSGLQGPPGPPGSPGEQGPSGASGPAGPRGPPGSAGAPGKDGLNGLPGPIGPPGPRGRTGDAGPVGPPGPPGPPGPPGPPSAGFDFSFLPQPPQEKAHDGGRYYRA
T2 sequence (P08123 80-1119 limits assumed, chain 2 of 2): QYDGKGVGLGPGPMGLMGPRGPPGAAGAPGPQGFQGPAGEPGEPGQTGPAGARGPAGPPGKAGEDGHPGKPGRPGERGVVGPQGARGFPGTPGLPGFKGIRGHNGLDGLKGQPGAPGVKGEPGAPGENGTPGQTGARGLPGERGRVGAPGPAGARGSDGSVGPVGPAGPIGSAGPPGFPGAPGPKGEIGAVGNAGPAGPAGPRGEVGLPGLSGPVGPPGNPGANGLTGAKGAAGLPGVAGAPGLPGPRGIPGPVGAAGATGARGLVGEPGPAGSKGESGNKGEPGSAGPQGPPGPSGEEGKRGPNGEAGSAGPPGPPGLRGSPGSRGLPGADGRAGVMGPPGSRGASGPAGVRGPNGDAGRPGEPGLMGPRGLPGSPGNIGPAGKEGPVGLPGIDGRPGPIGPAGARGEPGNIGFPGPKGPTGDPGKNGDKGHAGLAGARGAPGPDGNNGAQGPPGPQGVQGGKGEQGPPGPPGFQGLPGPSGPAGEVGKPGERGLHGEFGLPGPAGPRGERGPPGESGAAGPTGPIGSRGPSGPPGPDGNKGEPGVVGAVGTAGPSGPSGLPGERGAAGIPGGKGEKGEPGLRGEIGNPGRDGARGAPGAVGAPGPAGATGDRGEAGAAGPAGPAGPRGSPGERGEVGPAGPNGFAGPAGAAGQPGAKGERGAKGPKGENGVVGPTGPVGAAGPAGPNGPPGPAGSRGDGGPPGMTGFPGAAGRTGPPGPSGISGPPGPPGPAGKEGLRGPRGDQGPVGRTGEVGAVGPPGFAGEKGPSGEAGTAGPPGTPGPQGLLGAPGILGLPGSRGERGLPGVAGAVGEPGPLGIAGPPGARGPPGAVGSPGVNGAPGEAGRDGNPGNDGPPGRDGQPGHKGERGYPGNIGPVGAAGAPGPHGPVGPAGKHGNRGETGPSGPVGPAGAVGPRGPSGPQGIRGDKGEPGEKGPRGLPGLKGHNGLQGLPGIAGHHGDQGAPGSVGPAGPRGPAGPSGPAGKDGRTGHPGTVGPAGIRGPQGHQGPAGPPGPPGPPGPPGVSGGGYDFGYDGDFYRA

T1 sequence (P02454 152-1207, chain 1 of 2): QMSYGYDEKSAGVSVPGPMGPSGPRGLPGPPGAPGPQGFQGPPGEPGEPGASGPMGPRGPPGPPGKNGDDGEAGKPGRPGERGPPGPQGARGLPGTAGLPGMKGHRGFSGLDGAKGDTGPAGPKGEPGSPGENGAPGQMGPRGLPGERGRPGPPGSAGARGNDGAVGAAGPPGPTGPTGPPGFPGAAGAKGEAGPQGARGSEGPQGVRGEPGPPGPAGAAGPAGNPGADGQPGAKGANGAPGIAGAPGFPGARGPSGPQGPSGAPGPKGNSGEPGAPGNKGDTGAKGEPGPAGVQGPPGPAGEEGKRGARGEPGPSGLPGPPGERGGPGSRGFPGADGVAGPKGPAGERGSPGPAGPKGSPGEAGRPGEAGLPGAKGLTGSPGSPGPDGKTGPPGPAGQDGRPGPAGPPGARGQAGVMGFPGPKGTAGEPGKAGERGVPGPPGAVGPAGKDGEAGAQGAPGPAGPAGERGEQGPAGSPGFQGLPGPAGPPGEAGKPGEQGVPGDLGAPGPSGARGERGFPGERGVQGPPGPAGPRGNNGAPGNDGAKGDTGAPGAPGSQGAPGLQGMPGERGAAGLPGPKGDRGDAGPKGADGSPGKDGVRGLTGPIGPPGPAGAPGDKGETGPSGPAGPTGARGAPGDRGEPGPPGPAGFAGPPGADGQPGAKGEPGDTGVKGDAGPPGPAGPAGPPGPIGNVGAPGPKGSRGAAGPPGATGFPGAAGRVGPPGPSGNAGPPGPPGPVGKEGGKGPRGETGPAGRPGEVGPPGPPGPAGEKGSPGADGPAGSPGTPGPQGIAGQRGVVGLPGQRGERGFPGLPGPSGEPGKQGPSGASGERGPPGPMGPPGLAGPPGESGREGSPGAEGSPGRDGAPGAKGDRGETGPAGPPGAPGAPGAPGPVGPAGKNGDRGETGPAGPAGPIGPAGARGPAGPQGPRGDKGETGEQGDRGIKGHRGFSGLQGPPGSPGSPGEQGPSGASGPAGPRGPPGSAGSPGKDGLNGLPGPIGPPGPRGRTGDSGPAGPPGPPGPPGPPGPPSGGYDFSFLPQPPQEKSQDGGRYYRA
T1 sequence (P02466 86-1125, chain 2 of 2): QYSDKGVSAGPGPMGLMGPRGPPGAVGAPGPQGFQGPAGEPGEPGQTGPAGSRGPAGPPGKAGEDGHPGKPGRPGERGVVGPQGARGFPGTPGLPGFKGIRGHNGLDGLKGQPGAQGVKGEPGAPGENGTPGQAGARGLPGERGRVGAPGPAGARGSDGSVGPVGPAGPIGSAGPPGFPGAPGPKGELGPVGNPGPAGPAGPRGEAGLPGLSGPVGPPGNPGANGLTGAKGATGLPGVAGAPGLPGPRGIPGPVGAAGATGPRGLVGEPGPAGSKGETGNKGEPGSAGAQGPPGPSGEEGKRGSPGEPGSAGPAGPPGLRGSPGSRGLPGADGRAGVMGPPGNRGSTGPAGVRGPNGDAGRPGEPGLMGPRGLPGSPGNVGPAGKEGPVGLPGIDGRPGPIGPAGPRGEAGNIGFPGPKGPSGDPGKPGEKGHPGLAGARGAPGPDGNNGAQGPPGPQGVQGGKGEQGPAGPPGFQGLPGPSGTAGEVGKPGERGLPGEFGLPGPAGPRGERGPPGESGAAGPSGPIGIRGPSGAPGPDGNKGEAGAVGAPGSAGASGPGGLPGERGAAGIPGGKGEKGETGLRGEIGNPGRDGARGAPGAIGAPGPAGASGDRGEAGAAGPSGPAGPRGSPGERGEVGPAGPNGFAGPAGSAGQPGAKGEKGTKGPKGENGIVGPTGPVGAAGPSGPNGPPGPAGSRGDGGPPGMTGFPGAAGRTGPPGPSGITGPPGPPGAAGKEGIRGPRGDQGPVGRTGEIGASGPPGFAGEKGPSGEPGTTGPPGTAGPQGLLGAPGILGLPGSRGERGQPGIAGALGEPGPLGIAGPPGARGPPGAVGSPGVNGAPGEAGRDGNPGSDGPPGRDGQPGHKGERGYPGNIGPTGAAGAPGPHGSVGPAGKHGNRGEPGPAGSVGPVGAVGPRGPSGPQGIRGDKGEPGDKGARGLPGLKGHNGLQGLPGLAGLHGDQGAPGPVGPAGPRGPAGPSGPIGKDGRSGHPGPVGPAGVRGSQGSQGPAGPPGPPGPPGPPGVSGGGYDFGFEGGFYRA

Question: YHACYQAGCYIW (disulfide 4-9; not fully specified (C-terminus)) [SEQ ID NO: 107] was tested. Which “% Collagen Binding” value [1] did it give?
Answer: The value was 6%.

Question: YHASYQAGSWIW (not fully specified) [SEQ ID NO: 111] was tested. Which “% Collagen Binding” value [2] did it give?
Answer: Its value is 0%.

Question: And the “% Collagen Binding” value [1]?
Answer: Its value is 24%.
